Experimental data taken from US20100257638.

System: IL-1-L0-Fok1 zinc finger nuclease (IL-1-Fok1) (synthetic construct)
Test: cell_activity
Details: inter-chromosomal HR with donor pDAB1600 in tobacco NT1-240; NT1-260 0.1; BY2-380 0.2; donor only 0

## ATTATCCGAGTTTAATAGAACTCGGATAAT (double strand) [IL-1-L0-Fok1 recognition site]
  activity (events per selection plate): 1.2
